# ± gives the standard deviation of the averaged measurements.
# System: ATP
# Assay: switch fluorescence ratio, 500 uM ATP over buffer (Cy3 cluster intensity, sum of 5 cycles each) (fold (ratio)); higher = stronger signal-on switching upon ATP binding; sequences stand for … in TCGTCGGCAGCGTCAGATGTGTATAAGAGACAGTTTTTTTTTTTTTTTTTTTTTTTTT…TC
# Conditions: aptamer strand: ATP DNA aptamer (quencher-CACCTGGGGGAGTATTGCGGAGGAAGG + anchor), 100 nM annealed; ATP concentration: 500 uM
# Procedure, shortened: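 After annealing to 100 nM quencher-labelled ATP aptamer, Cy3-labelled switching-strand clusters on a modified Illumina MiSeq flow-cell were imaged in selection buffer. A second image followed after 15 min with 500 uM ATP at 22 °C, and five such buffer/ATP cycles were done, each separated by NaOH stripping and re-annealing. The fluorescence ratio, averaged per switch-domain sequence, is summed target-cycle over summed buffer-cycle Cy3 intensity per cluster, with clusters outside 100-1000 RFU excluded.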
# 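Note: ATP exposure 15 min at 22 °C before imaging.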
row,Sequence,switch fluorescence ratio
1,GCCTTGTGCG,1.01 ± 0.018
2,GCCTTTAGGG,1 ± 0.024
3,GCCTTTGTTT,0.986 ± 0.02
4,GCCTTTTGCT,0.988 ± 0.018
5,GCCTTTTTGG,1.02 ± 0.022
6,GCGAAAAGAT,0.982 ± 0.018
7,GCGAAAGGCG,0.992 ± 0.022
8,GCGAACCCAA,1.18 ± 0.048
9,GCGAACGGTT,1.03 ± 0.021
10,GCGAATATGC,1.1 ± 0.038
11,GCGAATGTTT,0.9812 ± 0.0029
12,GCGAATTAAT,0.979 ± 0.033
13,GCGAATTGGG,1.02 ± 0.024
14,GCGACCAGGC,1.14 ± 0.079
15,GCGACCCTTT,1.118 ± 0.0042
16,GCGACGAGTA,1.074 ± 0.004
17,GCGAGAATGT,0.9879 ± 0.0039
18,GCGAGACCAG,1.64 ± 0.051
19,GCGAGAGAGT,0.99812 ± 0.0009
20,GCGAGGAATA,1.2 ± 0.079
21,GCGAGGGAAC,1.03 ± 0.015
22,GCGAGGGTTC,0.991 ± 0.029
23,GCGAGTACGA,1.02 ± 0.032
24,GCGAGTCATT,0.9845 ± 0.007
25,GCGAGTCTCG,1.03 ± 0.044

row,Sequence,switch fluorescence ratio
1,GCGAGTGTAC,0.983 ± 0.094
2,GCGAGTGTTT,1.02 ± 0.048
3,GCGATAGTTG,1.02 ± 0.053
4,GCGATATAGC,1.03 ± 0.027
5,GCGATATGTG,1.013 ± 0.0073
6,GCGATCAATT,1.14 ± 0.051
7,GCGATCAGAG,1.04 ± 0.037
8,GCGATGGTGT,1.02 ± 0.008
9,GCGATTATGG,0.977 ± 0.019
10,GCGATTCCAG,1.02 ± 0.0065
11,GCGATTTGGC,1.01 ± 0.056
12,GCGCAACTGG,1.352 ± 0.0074
13,GCGCAGAACG,1.07 ± 0.015
14,GCGCAGCTCG,0.9814 ± 0.0084
15,GCGCATATTG,1.051 ± 0.0021
16,GCGCCGGGGG,1.03 ± 0.018
17,GCGCGCACAC,1.05 ± 0.019
18,GCGCGCTGGG,0.9646 ± 0.0044
19,GCGCGGGGGT,1.08 ± 0.032
20,GCGCGGTGTT,0.988 ± 0.026
21,GCGCGTGAGC,1.061 ± 0.0011
22,GCGCTAATGT,1.08 ± 0.013
23,GCGCTACAGT,1.021 ± 0.0069
24,GCGCTACGTG,1.01 ± 0.026
25,GCGCTCAGAT,1.02 ± 0.028

row,Sequence,switch fluorescence ratio
1,GCGCTCAGGT,1.09 ± 0.13
2,GCGCTGCTGT,1.04 ± 0.038
3,GCGCTGGCGG,1.01 ± 0.024
4,GCGCTGTTGG,0.9996 ± 0.0035
5,GCGCTTGGGA,1.03 ± 0.056
6,GCGCTTGTAC,2.36 ± 0.55
7,GCGCTTGTTG,0.998 ± 0.013
8,GCGGAAGGGG,0.988 ± 0.015
9,GCGGACGGGT,0.969 ± 0.019
10,GCGGAGACTG,0.962 ± 0.069
11,GCGGAGGCGT,0.984 ± 0.01
12,GCGGAGGCTG,0.97393 ± 0.00027
13,GCGGAGGTTT,0.973 ± 0.034
14,GCGGAGTTGT,1.02 ± 0.035
15,GCGGCAAGGG,1.03 ± 0.035
16,GCGGCACGGC,1.01 ± 0.03
17,GCGGCAGTCT,1.03 ± 0.012
18,GCGGCATTGG,1.04 ± 0.053
19,GCGGCCGGGG,0.999 ± 0.024
20,GCGGCGGATC,0.987 ± 0.038
21,GCGGCTTCTC,1.018 ± 0.0072
22,GCGGGACGTG,0.9857 ± 0.0098
23,GCGGGACTGT,1.04 ± 0.046
24,GCGGGAGGCT,0.977 ± 0.028
25,GCGGGCCTGT,0.9967 ± 0.0099

row,Sequence,switch fluorescence ratio
1,GCGGGCGGGG,1.02 ± 0.05
2,GCGGGCTTGG,0.974 ± 0.015
3,GCGGGGATGC,1.03 ± 0.075
4,GCGGGGCAAC,1.01 ± 0.064
5,GCGGGGCACA,0.987 ± 0.022
6,GCGGGGCGAA,1.01 ± 0.012
7,GCGGGGCGTA,0.995 ± 0.016
8,GCGGGGGCTT,0.98 ± 0.033
9,GCGGGGGTTC,1.04 ± 0.05
10,GCGGGGTCAG,0.989 ± 0.025
11,GCGGTAATCG,1.03 ± 0.032
12,GCGGTACACG,1.01 ± 0.027
13,GCGGTAGTCG,1.02 ± 0.052
14,GCGGTATAC,2.72 ± 0.14
15,GCGGTCGGTA,1.03 ± 0.038
16,GCGGTGACGG,1 ± 0.062
17,GCGGTGGATC,1.04 ± 0.027
18,GCGGTTCGAG,0.9872 ± 0.0033
19,GCGGTTGAGG,1.001 ± 0.009
20,GCGTAAAGTG,0.994 ± 0.038
21,GCGTAATGGT,1.095 ± 0.0043
22,GCGTAGTATT,0.9954 ± 0.0085
23,GCGTATACGG,1.01 ± 0.028
24,GCGTATATAA,1.04 ± 0.044
25,GCGTATGTAT,1.002 ± 0.0068

# — the supplement of paper PMC10126150
